The text below walks through data of patent JP2024051908A.

The target in experiment [1] is BA.2スパイクRBD (SARS-CoV-2 Omicron BA.2).
The target of experiment [2] is BA.5スパイクRBD (SARS-CoV-2 Omicron BA.5).

B1: MO1 (antibody, V domains shown)
VH: EVQLVESGGGMVQPGRSLRLSCAASGFTFDDYAMHWVRQIPGKGLEWVSGISWNSGDIGYADSVKGRFTISRDNAKNSLHLQMNSLRAEDTALYYCAKDKTYDSPGYFLNSFDYWGQGTLVTVSS
VL: DIQMTQSPSSLSASVGDRVTITCRASQGISSYLVWYQQKPGKAPKFLIYAASTLQSGVPSRFSGSGSGTDFTLTISSLQPEDFATYYCQQLYSYPITFGQGTRLEIK
On to B1, for which the Kd in experiment [1] worked out at 3.3 nM; in experiment [2], 11 nM.

B2: MO2 (antibody, V domains shown)
VH: EVQLVESGGGLVKPGGSLSLSCVASGFTFSDYRMSWIRQAPGKGLEWVSYISSSSGYKDYADSVKGRFTISRDNAKNSLSLQMNSLRVEDTAVYYCARDVGVVTATPGYWGQGVPVSVSS
VL: DIVMTQSPATLSVSPGERATLSCRASQSVGSNLAWYQQKPGQAPRLLIYDTSTRATGVPARFSGSGSGTDFTLTISSLQSEDFAVYLCHQYDQWPPAFGPGTRVDIK
B2 had a Kd in experiment [1] of 2 nM.
